Consider two molecules from US20180118816A1 (IGM BIOSCIENCES, published 2018).

For assay [1], the target named is T1, HIV gp120 antigen (strain HXB2, Immune Tech, cat #IT-001-0022p-PBS) (HIV, strain HXB2, UniProt P04578 33-511).
T1 construct: domain: gp120; Bought protein coated on ELISA plates; also called gp120 HBX2
Briefly: ELISA, gp120 coated at 1 µg/mL, anti-human kappa-HRP detection; value given to the IgG by the sense of the sentence, not by its word order.

For assay [2], the target named is T1, HIV gp120 antigen (strain HXB2, Immune …). The assay is described as follows: ELISA, gp120 coated at 1 µg/mL, anti-human kappa-HRP detection; value given to the IgM+J by the sense of the sentence, not by its word order. On the technique in general: ELISA stands for enzyme-linked immunosorbent assay.
For assay [3] the target is unchanged. Briefly: ELISA, interpolated EC10 values; gp120 coating 0.1 µg/mL end of the series.
The target is the same in assay [4]. The assay is described as follows: ELISA, interpolated EC10 values; gp120 coating 1.0 µg/mL end of the series.
Assay [5] shares this target. Briefly: ELISA, interpolated EC10 values; gp120 coated at 0.1 µg/mL.
Assay [6] has the same target. The assay is described as follows: ELISA, gp120 coated at 1 µg/mL.

The EC50 is the concentration needed to bring the measured effect to its halfway point. A higher EC50 goes with weaker potency.

B1: HIV02 IgG (HIV02G) (antibody, V domains shown)
VH: QVQLVQSGGQMKKPGESMRISCQASGYEFIDCTLNWVRLAPGRRPEWMGWLKPRGGAVNYARPLQGRVTMTRDVYSDTAFLELRSLTADDTAVYYCTRGKNCDYNWDFEHWGRGTPVTVSS
VL: EIVLTQSPGTLSLSPGETAIISCRTSQYGSLAWYQQRPGQAPRLVIYSGSTRAAGIPDRFSGSRWGPDYNLTIRNLESGDFGLYYCQQYEFFGQGTKVQVDI
notes: also called the IgG
B1: the EC50 in assay [1] was determined as 2.3 µg/mL.

B2: HIV02 IgM+J (HIV02M+J) (antibody)
heavy: QVQLVQSGGQMKKPGESMRISCQASGYEFIDCTLNWVRLAPGRRPEWMGWLKPRGGAVNYARPLQGRVTMTRDVYSDTAFLELRSLTADDTAVYYCTRGKNCDYNWDFEHWGRGTPVTVSSGSASAPTLFPLVSCENSPSDTSSVAVGCLAQDFLPDSITFSWKYKNNSDISSTRGFPSVLRGGKYAATSQVLLPSKDVMQGTDEHVVCKVQHPNGNKEKNVPLPVIAELPPKVSVFVPPRDGFFGNPRKSKLICQATGFSPRQIQVSWLREGKQVGSGVTTDQVQAEAKESGPTTYKVTSTLTIKESDWLSQSMFTCRVDHRGLTFQQNASSMCVPDQDTAIRVFAIPPSFASIFLTKSTKLTCLVTDLTTYDSVTISWTRQNGEAVKTHTNISESHPNATFSAVGEASICEDDWNSGERFTCTVTHTDLPSPLKQTISRPKGVALHRPDVYLLPPAREQLNLRESATITCLVTGFSPADVFVQWMQRGQPLSPEKYVTSAPMPEPQAPGRYFAHSILTVSEEEWNTGETYTCVVAHEALPNRVTERTVDKSTGKPTLYNVSLVMSDTAGTCY
light: EIVLTQSPGTLSLSPGETAIISCRTSQYGSLAWYQQRPGQAPRLVIYSGSTRAAGIPDRFSGSRWGPDYNLTIRNLESGDFGLYYCQQYEFFGQGTKVQVDIKRTVAAPSVFIFPPSDEQLKSGTASVVCLLNNFYPREAKVQWKVDNALQSGNSQESVTEQDSKDSTYSLSSTLTLSKADYEKHKVYACEVTHQGLSSPVTKSFNRGEC
chain: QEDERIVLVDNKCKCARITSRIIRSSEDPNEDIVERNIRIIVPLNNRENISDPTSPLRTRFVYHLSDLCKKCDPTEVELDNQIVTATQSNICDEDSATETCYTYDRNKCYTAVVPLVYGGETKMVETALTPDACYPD
notes: also called the IgM+J
For B2, the response in assay [2] was half-maximal at 0.32 µg/mL (EC50). Further, the “fold binding relative to the IgG (HIV02G), on a weight basis (from EC10)” value in assay [3] worked out at 20 fold. The “fold binding relative to the IgG (HIV02G), on a weight basis (from EC10)” value in assay [4] is 5 fold. In addition, the “fold better binding than the IgG (HIV02G), on a molar basis” value in assay [5] came out at 120 fold. Moreover, in assay [6], the “fold better binding than HIV02G, on a molar basis” value turned out to be 42 fold and the “fold difference in EC50 against HIV02G, by weight” value is 7 fold.
